Assay results from the DeepSol protein solubility set.

test: soluble on expression in E. coli; label from the status in PepcDB or PDB records

| Sequence | soluble on expression in E. coli |
| --- | --- |
| MNEQVHARLKALARPMTGEEYLESLRDGREVYFMGERVKDVTTHPAFRNTARMFARWYDRLHELHKEDLERSKDPSGWKWTVPTESGNGWTHPFFVGPRSAEDLLKARDTIAELQRTVYGWGGRSPDYKAAFVGTLGPNAEFYAPYQENARRWYKETQEKLLYWNHAIVNPPVDRHKPVEEVGDVYMHVERETDAGIVVSGAKVVATGSAFTHVNFIAHYGPLPIKDKKFALIFVVPMDAKGVKLISRASYEFIAAKTGSPFDYPLSSRLDENDAILVFDNVLVPWENVFVYGDVEKVNAFFPLSGFVHRFPFQGCTRLAVKLDFIAGLTMKALDVTGASQFRGVQARLGEILTYRNLFWALTEAMARDPMPWVDGYVLPNLWAGLTYRVLAPEVYPKIKDIIERDLASALIYLPSHAKDFQNPQIRRYLDQYVRGNGVDAVTRVKIMKALWDAVGTEFGGRHELYERNYAGNHENIRIEVLGAMEAAGVNEALRAFVDKFLGEYDLEGWKVPDLINPTEA | soluble |
| MVATAFCDNIGFFKSPTEKRCDKDYECSGTDLCGHYVCTPLSEFRKCPEDKRCGFEYSCMSGVCRYMSDFDAERRFSNFGPDMKCKDSRVCPIGLHCSNGNCV | not soluble |
| MQQANLGDGVATARLLSRSDWGARLPKSVEHFQGPAPYVIIHHSYMPAVCYSTPDCMKSMRDMQDFHQLERGWNDIGYSFGIGGDGMIYTGRGFNVIGAHAPKYNDKSVGIVLIGDWRTELPPKQMLDAAKNLIAFGVFKGYIDPAYKLLGHRQVRDTECPGGRLFAEISSWPHFTHINDTEGVSSTTAPVVPHVHPQAAAPQKPHQSPPAAPKV | soluble |
| MGSDKIHHHHHHMANGLQRLIRSLKLVARYGLIVMNDGLICLPIKQRQVVFESFNGKDVNDNPAAIYRELVATAPEYRTTAYFSVKPREFAALHKKYPQIQLVKRFTPRWVWLMARAEFWVLNSRLPNWWHQNRRTTVIQTWHGTPLKKLGADIEHVAIPGTTTAAYHQEFKTAASRWQYLIAPNQYSQTIFKSAFGFHHQFLSVGYPRNDRLYTTLPAEITDLKQQLLGSTKGPVVTYAPTWRDDMAVRPGVYQFDLPFDLAEFFQHVPANTQLIIRPHYLVKDAIDIHGFEERVHVLAETDITDLYLISDLLITDYSSVMFDFANLQRPQLFFAYDLAHYRDQLRGFYFDYEQEIPGPLVTTASAFYAQLDRWRQDGAFHDYQARQAAFYEKFCSWENGTASRQVVQVMLHGKDEIK | not soluble |
| MLAILYDRIRPDERMLFERAEALGLPYKKVYVPALPMVLGERPKELEGVTVALERCVSQSRGLAAARYLTALGIPVVNRPEVIEACGDKWATSVALAKAGLPQPKTALATDREEALRLMEAFGYPVVLKPVIGSWGRLLAKVTDRAAAEALLEHKEVLGGFQHQLFYIQEYVEKPGRDIRVFVVGERAIAAIYRRSAHWITNTARGGQAENCPLTEEVARLSVKAAEAVGGGVVAVDLFESERGLLVNEVNHTMEFKNSVHTTGVDIPGEILKYAWSLAS | soluble |
| GVSFFLVKEKMKGKNKLVPRLLGITKECVMRVDEKTKEVIQEWSLTNIKRWAASPKSFTLDFGDYQDGYYSVQTTEGEQIAQLIAGYIDIIL | soluble |
| GPGSMKGCCRLLSAAEAASLIRRIGPFAVHRGEATGVIEILSGDPNHPVKKLNLLGLAYAAALTELSELLSEELNAEARVAIFAARDGCSFSAGIDLKELSGMRPPSGSGAAATAAASSGPKAPAMLLQHQHRVVRTFQDGISSLARCRIPIIAAIDGHCIGGATSVASSCDVRYTTTRATFSVKEAAVGLAADIGVLQRLPAIIGEGRTRELAFTCRDFSGVEAKAMGFVEEVCADYPALLAHARKRAAQIAANSPLGVQNTKLILNWERERAAQTSLEYQAAINAFSLHCSDIPEAARAFAERREPVFTDYMVNPRGGPPHSRQS | not soluble |
| MGSDKIHHHHHHMKSAPDWIAHPDTPYLLIDEAKLKSNINYLKQRVESLGSHLRPHLKTLRTLEAAGYLLDSKSAPATVSTLAEAEAYAKAGYTDLLYAVGIAPAKLKRVAALRQQGINLHILLDNITQAQAVVDYAAEFGQDFSVFIEIDSDDHRGGIKPSDSKLLTIAKTLGEHFTGLMTHAGGSYACNTEQGLKNFAKQECDAVRIARNNLETAGIHCAITSVGSTPTAHFGEDFSDISEVRAGVYTTFDLVMKNIGVCDFSHIAMSVVTTVIGHNKEKNWLLTDSGWMALSRDSGTAGQNRDFGYGQVCKIDGSVLDGLCVNSTSQEHGVIELSDAYQLEDFPVGHQLRIMPNHACATAAMHPVYHVLMSDGSHNTWQRITGW | not soluble |
